Source: PMC3807654 (Cell Reports, 2012)

Molecular target: human α-synuclein, monomeric, full length (human, UniProt P37840 1-140)
Experiment: fluorescence polarisation

- Kd: 8.04 ± 2.09 µM
B1: Atto550-labeled SERF1a (Cys-SERF1a-Cys, N- and C-terminal double cysteine mutant) (natural protein)
chain: MC(Atto550 maleimide)ARGNQRELARQKNMKKTQEISKGKRKEDSLTASQRKQRDSEIMQEKQKAANEKKSMQTREKC(Atto550 maleimide)
